In article PMC2795102 (Journal of biomolecular screening, 2009) one finds Kd data, which are given here for 1 molecule.

The target of assay [1] is Wildtype, full-length human Gαi1 (human, UniProt P63096 1-354). The experiment in a line: SPR. A general note: Surface plasmon resonance follows binding to a sensor surface in real time, without labels.
A further assay addresses Gαi1(R178M/A326S) (human, UniProt P63096 1-354, R178M | A326S). The experiment in a line: SPR.

Sequence of Wildtype, full-length human Gαi1 (P63096 whole entry): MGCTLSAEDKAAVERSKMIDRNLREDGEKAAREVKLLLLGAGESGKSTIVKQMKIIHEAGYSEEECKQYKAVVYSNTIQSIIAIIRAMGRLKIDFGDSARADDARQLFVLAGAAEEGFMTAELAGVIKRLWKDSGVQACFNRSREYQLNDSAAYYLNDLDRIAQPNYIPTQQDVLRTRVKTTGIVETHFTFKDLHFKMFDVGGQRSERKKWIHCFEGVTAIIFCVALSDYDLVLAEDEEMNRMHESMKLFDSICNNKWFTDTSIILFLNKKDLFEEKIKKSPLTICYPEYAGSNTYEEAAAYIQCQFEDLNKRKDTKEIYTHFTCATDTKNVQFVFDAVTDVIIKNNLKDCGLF
Sequence of Gαi1(R178M/A326S) (P63096 whole entry R178M/A326S): as the sequence (P63096 whole entry) above, with R178M, A326S counted along it

B1: RGS16 (natural protein, human, UniProt O15492 1-202, looked up)
chain: MCRTLAAFPTTCLERAKEFKTRLGIFLHKSELGCDTGSTGKFEWGSKHSKENRNFSEDVLGWRESFDLLLSSKNGVAAFHAFLKTEFSEENLEFWLACEEFKKIRSATKLASRAHQIFEEFICSEAPKEVNIDHETHELTRMNLQTATATCFDAAQGKTRTLMEKDSYPRFLKSPAYRDLAAQASAASATLSSCSLDEPSHT
The term Kd denotes the equilibrium constant for the complex coming apart. Read a low Kd as tighter binding. In the case of B1, the Kd in assay [1] is 0.124 µM; with Gαi1(R178M/A326S), 0.115 µM.
